Assays:
Type in all cases: biochemical, Mycolicibacterium smegmatis
Settings in all cases: 50 mM sodium phosphate pH 7.0, 37 °C, 15 min
NC(=O)c1cccnc1 = experiment: colorimetric ammonia formation, Lineweaver-Burk
Source text: (§1) colorimetric ammonia formation, Lineweaver-Burk on PzaA

NC(=O)c1cnccn1 = experiment: colorimetric ammonia formation, Lineweaver-Burk
Source text: as §1

NC(=O)c1ccncc1 = experiment: colorimetric ammonia formation, Lineweaver-Burk
Source text: as §1

NNC(=O)c1ccncc1 = experiment: colorimetric hydrazine formation (p-dimethylaminobenzaldehyde), Lineweaver-Burk
Source text: (§2) colorimetric hydrazine formation (p-dimethylaminobenzaldehyde), Lineweaver-Burk on PzaA

NNC(=O)c1cccnc1 = experiment: as above
Source text: as §2

Q: “PzaA (Mycolicibacterium smegmatis MC2 155)” was tested. Which Km (NC(=O)c1cccnc1) did it give?
A: The Km was 0.0887 (0.0113) mM.

Q: What about the Vmax (NC(=O)c1cccnc1) of the same substance?
A: The Vmax was 37.2 µmol/min/mg.

Q: And the Vmax/Km (NC(=O)c1cccnc1)?
A: Its Vmax/Km is 419000 µL/min/mg.

Q: And the Km (NC(=O)c1cnccn1)?
A: The Km was 0.143 (0.0078) mM.

Q: And the Vmax (NC(=O)c1cnccn1)?
A: The Vmax was 11.7 µmol/min/mg.

Q: And the Vmax/Km (NC(=O)c1cnccn1)?
A: Its Vmax/Km is 81800 µL/min/mg.

Q: And the Km (NC(=O)c1ccncc1)?
A: The Km was 0.145 (0.0203) mM.

Q: What about the Vmax (NC(=O)c1ccncc1) of the same substance?
A: The Vmax was 6.48 µmol/min/mg.

Q: What about the Vmax/Km (NC(=O)c1ccncc1) of the same substance?
A: The Vmax/Km was 44700 µL/min/mg.

Q: And the Km (NNC(=O)c1ccncc1)?
A: The Km was 1.20 (0.271) mM.

Q: And the Vmax (NNC(=O)c1ccncc1)?
A: Its Vmax is 1.51 µmol/min/mg.

Q: What about the Vmax/Km (NNC(=O)c1ccncc1) of the same substance?
A: Its Vmax/Km is 1260 µL/min/mg.

Q: What about the Km (NNC(=O)c1cccnc1) of the same substance?
A: The Km was 1.26 (0.0475) mM.

Q: And the Vmax (NNC(=O)c1cccnc1)?
A: The Vmax was 23.7 µmol/min/mg.

Q: What about the Vmax/Km (NNC(=O)c1cccnc1) of the same substance?
A: Its Vmax/Km is 18800 µL/min/mg.
